Source: patent US20190185562A1 (Regeneron, published 2019)

What was measured:
[1] = target: T1, full length (FL) human gp130 over-expressed on HEK293/Stat3-luc/gp130-2X Sort cells (human, UniProt P40189 23-918); test: FACS, 10 nM mAb, 293/Stat3-luc/GP130 2X sort cells
T1 construct: whole, on cells
T1 sequence (looked up): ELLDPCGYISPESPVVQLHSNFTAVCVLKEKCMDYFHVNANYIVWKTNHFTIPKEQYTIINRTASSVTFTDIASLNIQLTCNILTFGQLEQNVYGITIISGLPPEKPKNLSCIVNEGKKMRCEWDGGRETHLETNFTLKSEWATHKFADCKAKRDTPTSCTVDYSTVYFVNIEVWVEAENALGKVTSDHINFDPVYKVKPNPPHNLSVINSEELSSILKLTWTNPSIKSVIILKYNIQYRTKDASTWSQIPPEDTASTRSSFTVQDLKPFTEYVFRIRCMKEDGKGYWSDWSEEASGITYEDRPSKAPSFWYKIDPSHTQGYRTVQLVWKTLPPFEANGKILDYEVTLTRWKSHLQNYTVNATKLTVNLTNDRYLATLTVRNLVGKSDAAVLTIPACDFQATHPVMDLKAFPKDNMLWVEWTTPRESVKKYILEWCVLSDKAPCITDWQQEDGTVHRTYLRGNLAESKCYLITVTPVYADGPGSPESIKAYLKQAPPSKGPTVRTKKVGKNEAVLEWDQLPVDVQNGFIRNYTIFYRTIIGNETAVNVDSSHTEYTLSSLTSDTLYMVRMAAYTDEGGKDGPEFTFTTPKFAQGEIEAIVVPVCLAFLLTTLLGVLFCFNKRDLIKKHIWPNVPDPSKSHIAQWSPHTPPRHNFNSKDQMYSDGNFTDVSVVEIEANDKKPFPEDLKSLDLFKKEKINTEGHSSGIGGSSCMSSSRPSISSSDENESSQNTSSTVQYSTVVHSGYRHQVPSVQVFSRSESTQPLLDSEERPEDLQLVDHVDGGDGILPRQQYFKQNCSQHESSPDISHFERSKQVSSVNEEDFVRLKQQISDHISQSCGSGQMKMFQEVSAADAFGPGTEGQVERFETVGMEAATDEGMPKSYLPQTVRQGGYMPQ
Excerpt: (§1) In order to assess cell binding by anti-GP130 antibodies of the invention two cell lines were generated. One cell line generated was HEK293 cells stably over-expressing full length (FL) human gp130 (amino acids 1-918 of accession # P40189 with leucine at position 2 changed to valine, a natural variant) along with a luciferase reporter (Stat3-luciferase, Stat3-luc, SA Bioscience, #CLS-6028L). The cells were sorted twice using flow cytometry for high expression of gp130. It is known hereafter as HEK293/Stat3-luc/gp130-2X Sort. IMR-32 cells (human Neuroblastoma, ATCC), were also evaluated for cell binding as these cells express gp130 endogenously and were used for bioassays. The cells used for binding were generated to stably express a luciferase reporter (Stat3-luciferase, Stat3-luc, SA Bioscience, #CLS-6028L), and are referred to hereafter as IMR-32/STAT3-Luc cells.
(§2) For the FACS analysis, 10 nM of the antibodies were used to stain 0.5×10^6 cells/well of each cell type at 4° C. in PBS (without calcium and magnesium) containing 2% FBS for 30 minutes. IMR-32/STAT3-luc cells were incubated with 1 mg/mL mouse IgG for 30 minutes at 4° C. to block Fc receptors prior to adding the antibodies. To test whether the anti-gp130 antibody binding is specific for gp130 on the IMR-32 cells, antibodies were added to IMR-32/Stat3-luc cells with or without being pre-bound to 1000 nM of recombinant protein of the ecto-domain of human gp130 fused to myc-myc-his tag (hgp130.mmh) for 30 minutes at 25° C. […] Cells were fixed using BD CytoFix™ (Becton Dickinson, #554655) and analyzed on an IQue® (Intellicyt®) Flow Cytometer. Unstained and secondary antibody alone controls were also tested for all cell lines. The results were analyzed using ForeCyt® (IntelliCyt®) software to determine the geometric means of fluorescence for viable cells.

[2] = target: T2, human gp130 expressed endogenously on IMR-32/Stat3-luc cells (human, UniProt P40189 23-918); test: FACS, 10 nM mAb, IMR-32/Stat3-luc cells, no hGP130.mmh
T2 construct: whole, on cells
T2 sequence (looked up): T1 sequence (looked up)
Excerpt: as §1, §2

[3] = target: T2, human gp130 expressed endogenously on …; test: FACS, 10 nM mAb, IMR-32/Stat3-luc cells, competitor 1 uM hGP130.mmh
Excerpt: as §1, §2

[4] = target: T3, human gp130 extracellular domain with the Fc portion of mouse IgG2a at the C-terminus (human); test: blocking ELISA, 2.5 nM hGP130-mFc to plate-bound CNTFR/CNTF complex; * below the lower limit of quantitation of 1.25E-09 M
T3 construct: Dimeric; also called hGP130-mFc; dimeric GP130 protein
T3 chain: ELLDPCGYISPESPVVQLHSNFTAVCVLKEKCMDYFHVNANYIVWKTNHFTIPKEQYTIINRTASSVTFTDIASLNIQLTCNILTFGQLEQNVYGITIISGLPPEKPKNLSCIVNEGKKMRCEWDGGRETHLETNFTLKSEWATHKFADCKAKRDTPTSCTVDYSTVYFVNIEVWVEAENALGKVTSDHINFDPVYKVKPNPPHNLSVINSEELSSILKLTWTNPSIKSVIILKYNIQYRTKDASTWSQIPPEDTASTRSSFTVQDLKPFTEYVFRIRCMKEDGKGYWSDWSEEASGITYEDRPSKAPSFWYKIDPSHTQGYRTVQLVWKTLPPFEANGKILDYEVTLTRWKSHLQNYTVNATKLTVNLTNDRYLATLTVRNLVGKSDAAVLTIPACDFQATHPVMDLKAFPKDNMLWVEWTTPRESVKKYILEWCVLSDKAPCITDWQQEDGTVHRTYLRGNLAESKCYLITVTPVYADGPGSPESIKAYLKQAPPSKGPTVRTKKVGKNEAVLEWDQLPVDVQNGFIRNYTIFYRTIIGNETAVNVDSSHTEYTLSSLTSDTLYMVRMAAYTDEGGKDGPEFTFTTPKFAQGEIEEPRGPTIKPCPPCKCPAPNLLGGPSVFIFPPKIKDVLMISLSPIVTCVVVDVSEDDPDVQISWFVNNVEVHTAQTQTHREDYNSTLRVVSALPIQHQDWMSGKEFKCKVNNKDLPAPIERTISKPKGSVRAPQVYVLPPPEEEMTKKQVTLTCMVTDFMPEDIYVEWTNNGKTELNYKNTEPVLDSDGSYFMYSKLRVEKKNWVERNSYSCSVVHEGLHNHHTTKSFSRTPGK
Procedure: The experiment was carried out using the following procedure. Human CNTFRα was coated at a concentration of […] in HBSS on a 96-well microtiter plate overnight at 4° C. […] Human CNTF at a concentration of 1 μg/ml in HBSS was added to the plate bound CNTFRα for 1 hour at room temperature. In separate dilution plates, a constant amount of 2.5 nM of human GP130-mFc protein was titrated with antibodies ranging from 3.4 pM to 200 nM in serial dilution and with no antibody present. These solutions were incubated for 1 hour at room temperature (RT) and subsequently transferred to the microtiter plates with CNTFRα/CNTF complex without washing. The plates were incubated for 2 hours at RT, washed with PBST buffer, and plate-bound hGP130-mFc was detected with an anti-mFc polyclonal antibody conjugated with horseradish peroxidase (HRP) (Jackson ImmunoResearch Inc). Samples were developed with a TMB solution (BD Biosciences, substrate A and B mixed at 1:1 ratio as per manufacturer's instructions) to produce a colorimetric reaction and then neutralized with 1M sulfuric acid before measuring absorbance at 450 nm on a Victor ×5 plate reader.

- MFI - Normalized to Unstained Control [1]: 159
- MFI - Normalized to Unstained Control [2]: 23
- MFI - Normalized to Unstained Control [3]: 8
- IC50 [4]: < 1.25 nM
B1: MAb16666 (antibody, V domains shown)
VH: EVQLVESGGGLVQSGGSLRLSCAASGFTFSRYEMNWVRQAPGKGLEWVAYISNTGTTRDYSDSVKGRFTISRDNAKNSLYLQMSSLRVEDTAVYYCVREKFSGTSDWFDPWGQGTLVTVSS
VL: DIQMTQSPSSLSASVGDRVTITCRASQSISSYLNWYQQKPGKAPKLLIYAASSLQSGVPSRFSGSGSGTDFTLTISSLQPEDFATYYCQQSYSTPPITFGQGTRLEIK
notes: Variable domains only
